Data as given in US20240279288A1, “APPLICATION OF PLANT JAZ PROTEINS AND DERIVED POLYPEPTIDES IN PREVENTION AND TREATMENT OF HUMAN AND ANIMAL TUMORS” (ANYANG INSTITUTE OF SINO-COTTON INDUSTRY INNOVATION, priority 2021, published 2024).

B1: GhJAZ1 after deletion of ZIM domain: GhJAZ1 mutant with ZIM domain deleted, protein sequence SEQ ID No. 85 (protein)
chain: MSSCSESTAMKPARSPEKPSFAQTCNLLSQYLKEKGSFGDLSLGMTCNVEANGTPVVPPPTMNLFPLNDKSDDVCGRNGGNPKNLTSMDLFPQQAGLASKDDSPNKLEPQTASSSQSNNSFNPIPFTSSIARSPIESSIGVPPTSKPVHPAQRAVPGDLPIARRASLHRFLEKRKDRITAKAPYQINNSAAAPSLSGDNKSWLGLAAQSP
B2: GhJAZ1 after deletion of Jas domain: GhJAZ1 mutant with Jas domain deleted, protein sequence SEQ ID No. 87 (protein)
chain: MSSCSESTAMKPARSPEKPSFAQTCNLLSQYLKEKGSFGDLSLGMTCNVEANGTPVVPPPTMNLFPLNDKSDDVCGRNGGNPKNLTSMDLFPQQAGLASKDDSPNKLEPQTAPMTIFYGGQVIVFNDFPANKAKEIMLLASNSSSQSNNSFNPIPFTSSIARSPIESSIGVPPTSKPVHPAQRAVPGNNSAAAPSLSGDNKSWLGLAAQSP
B3: GhJAZ9: cotton JAZ9 protein, sequence SEQ ID No. 2, highest homology to AtJAZ9 (protein)
chain: MERDFLGLNSNEPLAVVKDDVNTDKYKQIGFTKSSGIQWPFSNKVFAVPQLMNFNFAQGDKTKKTGYDSKVSPLFMPISTMDASELQKSFNHNWNGGGHFSLTDSHVQHNTNMFPASNQTISVSGSNPFVKNHFTTTGQNFPANTIKPQFLGGVPVTTPHSVLPTLGTVGGSVEPCAQTSGSPAQLTIFYAGEVNVFDDITPEKAQAIMFLAGNGSSMASNSAYPKPPVQTPILKPVQVDSVPANQLINTQLSFGMPSPLPVSSHAGMQSWSGSTSTEEQIICKASVPPTPSTPISKLESPNLVNTMGSDAATGMMPSVPQARKASLARFLEKRKGRIMSTASPYNLISKKSLDYATTMESNA

Columns and labels:
Assay type in all cases: binding, cotton
GhNINJA = assay: Yeast two hybrid with GhNINJA
Sequence of GhNINJA (as listed by the source): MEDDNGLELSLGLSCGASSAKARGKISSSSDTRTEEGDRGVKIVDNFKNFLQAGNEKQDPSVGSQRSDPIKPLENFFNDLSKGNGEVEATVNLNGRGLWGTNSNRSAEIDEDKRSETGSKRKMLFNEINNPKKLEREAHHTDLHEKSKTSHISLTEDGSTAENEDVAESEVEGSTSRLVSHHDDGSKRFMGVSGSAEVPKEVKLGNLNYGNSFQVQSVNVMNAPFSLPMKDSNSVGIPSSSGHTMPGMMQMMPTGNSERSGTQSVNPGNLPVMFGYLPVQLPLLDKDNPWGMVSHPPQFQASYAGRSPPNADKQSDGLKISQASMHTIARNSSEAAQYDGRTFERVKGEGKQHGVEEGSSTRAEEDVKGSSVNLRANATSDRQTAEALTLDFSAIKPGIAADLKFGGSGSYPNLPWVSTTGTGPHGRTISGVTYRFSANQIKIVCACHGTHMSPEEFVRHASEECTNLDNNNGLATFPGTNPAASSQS
Protocol: (§1) The study on Arabidopsis had shown that the inhibition of JAZ protein on JA signaling was mainly achieved by inhibiting the transcription factor function of MYC, which had been experimentally verified by us in cotton. Based on the phylogenetic tree of Arabidopsis and cotton JAZs, we screened 6 cotton JAZs (GhJAZ1, GhJAZ7, GhJAZ9, GhJAZ10, GhJAZ11 and GhJAZ31), which were analyzed with GhMYC2, GhNINJA, GhTPL, GhHDA6, and GhCOI1 for yeast two hybrid. The amino acid sequence of GhJAZ1 was set forth in SEQ ID No. 4, and the corresponding encoding gene sequence was set forth in SEQ ID No. 39; the amino acid sequence of GhJAZ7 was set forth in SEQ ID No. 7, and the corresponding encoding gene sequence was set forth in SEQ ID No. 42; the amino acid sequence of GhJAZ9 was set forth in SEQ ID No. 2, and the corresponding encoding gene sequence was set forth in SEQ ID No. 37; the amino acid sequence of GhJAZ10 was set forth in SEQ ID No. 3, and the corresponding encoding gene sequence was set forth in SEQ ID No. 38; the amino acid sequence of GhJAZ11 was set forth in SEQ ID No. 5, and the corresponding encoding gene sequence was set forth in SEQ ID No. 40; and the amino acid sequence of GhJAZ31 was set forth in SEQ ID No. 9, and the corresponding encoding gene sequence was set forth in SEQ ID No. 44. […]

GhMYC2 [1] = assay: Yeast two hybrid with GhMYC2
Sequence of GhMYC2 (as listed by the source): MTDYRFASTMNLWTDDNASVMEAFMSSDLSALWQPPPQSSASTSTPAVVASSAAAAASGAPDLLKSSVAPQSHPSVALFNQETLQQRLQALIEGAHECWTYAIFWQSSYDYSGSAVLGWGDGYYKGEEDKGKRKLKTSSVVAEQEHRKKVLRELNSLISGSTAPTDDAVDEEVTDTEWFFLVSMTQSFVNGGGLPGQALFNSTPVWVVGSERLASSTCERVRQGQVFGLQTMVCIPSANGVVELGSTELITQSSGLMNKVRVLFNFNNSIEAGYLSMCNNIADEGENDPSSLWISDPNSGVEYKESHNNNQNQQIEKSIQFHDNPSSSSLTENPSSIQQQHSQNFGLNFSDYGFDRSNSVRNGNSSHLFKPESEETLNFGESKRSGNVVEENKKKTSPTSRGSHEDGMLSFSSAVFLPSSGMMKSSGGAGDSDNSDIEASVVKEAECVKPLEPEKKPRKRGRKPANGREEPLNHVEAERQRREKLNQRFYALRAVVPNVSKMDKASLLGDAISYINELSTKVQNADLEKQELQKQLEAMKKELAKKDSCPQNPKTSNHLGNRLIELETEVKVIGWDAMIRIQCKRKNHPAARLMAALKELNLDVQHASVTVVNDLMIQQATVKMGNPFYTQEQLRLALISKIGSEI
Protocol: as §1, with “44. The amino acid sequence of GhMYC2 was set forth in SEQ ID No. 71, and the corresponding encoding gene sequence was set forth in SEQ ID No. 72; the amino acid sequence of GhNINJA was set forth in SEQ ID No. 73, and the corresponding encoding gene sequence was set forth in SEQ ID No. 74; the amino acid sequence of GhTPL was set forth in SEQ ID No. 75, and the corresponding encoding gene sequence was set forth in SEQ ID No. 76; the amino acid sequence of GhHDA6 was set forth in SEQ ID No. 77, and the corresponding encoding gene sequence was set forth in SEQ ID No. 78; and the amino acid sequence of GhCOI1 was set forth in SEQ ID No. 79, and the corresponding encoding gene sequence was set forth in SEQ ID No. 80.” for “44.”

GhCOI1 = assay: Yeast two hybrid with GhCOI1; conditions: in the presence of JA-Ile
Sequence of GhCOI1 (as listed by the source): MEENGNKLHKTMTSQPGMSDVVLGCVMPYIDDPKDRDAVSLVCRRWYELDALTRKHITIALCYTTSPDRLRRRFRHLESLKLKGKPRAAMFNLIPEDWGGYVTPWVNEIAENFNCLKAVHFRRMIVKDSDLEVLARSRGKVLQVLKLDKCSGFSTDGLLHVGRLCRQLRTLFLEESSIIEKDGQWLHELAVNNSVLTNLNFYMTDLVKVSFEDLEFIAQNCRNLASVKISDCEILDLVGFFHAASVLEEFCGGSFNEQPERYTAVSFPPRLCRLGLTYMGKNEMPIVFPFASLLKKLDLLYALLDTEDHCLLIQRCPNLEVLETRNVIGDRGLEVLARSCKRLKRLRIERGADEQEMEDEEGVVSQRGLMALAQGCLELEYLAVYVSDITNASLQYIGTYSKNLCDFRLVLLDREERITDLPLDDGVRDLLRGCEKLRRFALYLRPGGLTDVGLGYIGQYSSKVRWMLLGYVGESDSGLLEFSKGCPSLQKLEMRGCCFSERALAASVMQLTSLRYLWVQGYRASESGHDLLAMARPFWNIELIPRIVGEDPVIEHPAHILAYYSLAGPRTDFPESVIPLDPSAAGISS
Protocol: as §1, with “44. The amino acid sequence of GhMYC2 was set forth in SEQ ID No. 71, and the corresponding encoding gene sequence was set forth in SEQ ID No. 72; the amino acid sequence of GhNINJA was set forth in SEQ ID No. 73, and the corresponding encoding gene sequence was set forth in SEQ ID No. 74; the amino acid sequence of GhTPL was set forth in SEQ ID No. 75, and the corresponding encoding gene sequence was set forth in SEQ ID No. 76; the amino acid sequence of GhHDA6 was set forth in SEQ ID No. 77, and the corresponding encoding gene sequence was set forth in SEQ ID No. 78; and the amino acid sequence of GhCOI1 was set forth in SEQ ID No. 79, and the corresponding encoding gene sequence was set forth in SEQ ID No. 80.” for “44.”

GhTPL = assay: Yeast two hybrid with GhTPL
Sequence of GhTPL (as listed by the source): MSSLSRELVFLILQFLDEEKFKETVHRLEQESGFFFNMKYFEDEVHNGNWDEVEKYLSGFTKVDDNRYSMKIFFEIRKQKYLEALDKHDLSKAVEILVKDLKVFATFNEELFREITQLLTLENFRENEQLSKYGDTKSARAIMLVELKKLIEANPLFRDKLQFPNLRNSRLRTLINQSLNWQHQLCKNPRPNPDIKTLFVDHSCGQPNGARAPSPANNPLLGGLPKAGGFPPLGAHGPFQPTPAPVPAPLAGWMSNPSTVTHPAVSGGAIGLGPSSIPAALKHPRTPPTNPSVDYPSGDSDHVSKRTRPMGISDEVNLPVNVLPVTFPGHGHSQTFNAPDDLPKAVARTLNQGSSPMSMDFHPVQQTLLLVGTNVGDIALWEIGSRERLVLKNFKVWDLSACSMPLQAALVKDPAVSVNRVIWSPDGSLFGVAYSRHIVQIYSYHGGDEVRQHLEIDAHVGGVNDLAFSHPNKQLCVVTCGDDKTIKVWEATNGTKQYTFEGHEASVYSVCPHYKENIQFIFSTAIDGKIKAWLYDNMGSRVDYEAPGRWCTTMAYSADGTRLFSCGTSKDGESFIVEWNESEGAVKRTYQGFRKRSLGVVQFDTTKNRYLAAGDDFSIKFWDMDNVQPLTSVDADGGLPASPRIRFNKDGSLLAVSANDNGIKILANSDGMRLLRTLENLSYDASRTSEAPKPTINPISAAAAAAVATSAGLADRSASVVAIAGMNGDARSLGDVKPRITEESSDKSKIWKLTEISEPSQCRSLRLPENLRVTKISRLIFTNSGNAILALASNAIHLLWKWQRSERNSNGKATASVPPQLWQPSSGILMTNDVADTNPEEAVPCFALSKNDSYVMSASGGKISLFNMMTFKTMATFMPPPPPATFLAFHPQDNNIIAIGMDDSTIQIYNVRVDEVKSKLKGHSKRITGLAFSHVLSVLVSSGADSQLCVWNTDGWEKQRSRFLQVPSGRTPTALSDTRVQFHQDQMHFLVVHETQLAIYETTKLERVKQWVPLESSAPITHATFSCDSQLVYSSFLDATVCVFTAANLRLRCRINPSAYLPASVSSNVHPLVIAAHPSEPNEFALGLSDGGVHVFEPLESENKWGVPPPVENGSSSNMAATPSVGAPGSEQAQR
Protocol: as §1, with “44. The amino acid sequence of GhMYC2 was set forth in SEQ ID No. 71, and the corresponding encoding gene sequence was set forth in SEQ ID No. 72; the amino acid sequence of GhNINJA was set forth in SEQ ID No. 73, and the corresponding encoding gene sequence was set forth in SEQ ID No. 74; the amino acid sequence of GhTPL was set forth in SEQ ID No. 75, and the corresponding encoding gene sequence was set forth in SEQ ID No. 76; the amino acid sequence of GhHDA6 was set forth in SEQ ID No. 77, and the corresponding encoding gene sequence was set forth in SEQ ID No. 78; and the amino acid sequence of GhCOI1 was set forth in SEQ ID No. 79, and the corresponding encoding gene sequence was set forth in SEQ ID No. 80.” for “44.”

GhMYC2 [2] = assay: Luciferase experiment in tobacco leaves with GhMYC2; conditions: no fluorescence on the control
Excerpt: Method of the luciferase experiment: GhJAZ1 (corresponding encoding gene sequence set forth in SEQ ID No. 39) was subcloned into pCAMBIA-CLuc vector (Chen, H., et al. “Firefly Luciferase Complementation Imaging Assay for Protein-Protein Interactions in Plants.” Plant Physiology 146.2(2008):368-376.) between KpnI and SalI cleavage sites, and the transcription factors such as GhMYC2 (corresponding encoding gene sequence set forth in SEQ ID No. 72), GhNINJA (corresponding encoding gene sequence set forth in SEQ ID No. 74), and GhCOI1 (corresponding encoding gene sequence set forth in SEQ ID No. 80) were subcloned into pCAMBIA-NLuc (Chen, H., et al. “Firefly Luciferase Complementation Imaging Assay for Protein-Protein Interactions in Plants.” Plant Physiology 146.2(2008):368-376.) between KpnI and SalI cleavage sites, respectively. […] Luciferase substrates were applied at the infected leaves before taking images and placed in a dark room for at least 6 min to quench fluorescence, followed by observation on the Nightowl-II LB983 instrument, using IndigoBasic software under the luciferase-5 min setting conditions.

Molecule	interaction with GhNINJA (GhNINJA)	interaction with GhMYC2 (GhMYC2 [1])	interaction with GhCOI1 (GhCOI1)	interaction with GhTPL (GhTPL)	fluorescence with GhMYC2 after applying luciferase substrate (GhMYC2 [2])
B1	significantly weakened	significantly weakened	significantly weakened		
B2			significantly weakened	significantly weakened	
B3		weak			weaker fluorescence
